In test [1] the target is T1, His-tagged human BCMA (Acro Biosystems, Cat. #BCA-H522y) (human, UniProt Q02223 1-54).
T1 construct: also called huBCMA; P1; not shown: His tag
T1 sequence: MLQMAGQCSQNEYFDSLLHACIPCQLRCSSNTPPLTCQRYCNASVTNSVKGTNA
In words: BLI (Gator), antibody loaded on HFC biosensor, His-tagged antigen as analyte.

For test [2], the target named is T2, His-tagged cynomolgous macaque BCMA (Acro Biosystems, BCA-C52H7) (cynomolgus macaque, UniProt Q02223 1-54 (human entry)).
T2 construct: Bought protein; also called cyno BCMA; CyBCMA; not shown: His tag
The test is described as above.

Test [3] addresses T3, recombinant his-tagged human TACI (Sinobiological cat #11937-H08H) (human, UniProt O14836 1-165).
T3 construct: Bought protein; also called Human TACI-His; huTACI; not shown: His tag
T3 sequence: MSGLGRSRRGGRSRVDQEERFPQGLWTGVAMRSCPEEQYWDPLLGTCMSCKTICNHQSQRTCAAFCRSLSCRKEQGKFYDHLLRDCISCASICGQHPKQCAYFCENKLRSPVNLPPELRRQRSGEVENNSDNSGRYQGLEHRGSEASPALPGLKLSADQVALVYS
The description is as above.

Test [4] has as its target T1, His-tagged human BCMA (Acro Biosystems, …). The test can be described thus: ELISA, hybridoma supernatant, coated His-tagged antigen. Background: In an ELISA, binding on a coated surface is turned into a signal by an enzyme label.
For test [5], the target named is T2, His-tagged cynomolgous macaque BCMA …. The description is as above.
In test [6] the target is T4, His-tagged mouse BCMA (Acro Biosystems, BCA-M52H3) (mouse, UniProt O88472 1-49).
T4 construct: Bought protein; not shown: His tag
T4 chain: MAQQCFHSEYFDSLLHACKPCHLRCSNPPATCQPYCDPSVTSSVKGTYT
The test is described as above.

In test [7] the target is T1, His-tagged human BCMA (Acro Biosystems, …). In words: ELISA, IgG purified from hybridoma supernatant, coated His-tagged antigen.
The target of test [8] is T4, His-tagged mouse BCMA (Acro Biosystems, …). The description is as above.
The target in test [9] is T5, human BCMA expressed on cells (human, UniProt Q02223 1-184).
T5 construct: the cell line is named under assay; also called wildtype human BCMA
T5 sequence: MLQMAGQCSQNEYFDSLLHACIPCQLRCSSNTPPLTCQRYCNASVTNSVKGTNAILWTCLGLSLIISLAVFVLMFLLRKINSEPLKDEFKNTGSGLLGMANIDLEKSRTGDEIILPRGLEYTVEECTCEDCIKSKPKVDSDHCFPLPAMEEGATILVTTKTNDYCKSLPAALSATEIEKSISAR
The test can be described thus: flow cytometry, hybridoma supernatant, HEK293T cells stably expressing human BCMA. In general terms: A flow cytometer gives signals particle by particle.

For test [10], the target named is T6, Human HER3-His (Sino Biological, 10201-H08H) (human, UniProt P21860 20-643).
T6 construct: Specificity control; also called Human HERS-His
The test can be described thus: ELISA, coated His-tagged antigen.

For test [11], the target named is T2, His-tagged cynomolgous macaque BCMA …. The test can be described thus: ELISA, coated Cyno BCMA-His.
For test [12], the target named is T7, Cyno TACI-His (Sino Biological, 90976-C08H) (cynomolgus macaque, UniProt G7PTR7 1-165).
T7 construct: Bought protein; also called cynomolgous macaque TACI; CyTACI
T7 sequence: T3 sequence with F21S, T52A, A64T, S70N, K77R, L139S, V160L
The test can be described thus: ELISA, coated Cyno TACI-His.

For test [13], the target named is T8, Human BCMA-His (Sino Biological, 10620-H08H) (human, UniProt Q02223 1-54).
T8 construct: not shown: His tag
T8 sequence: T1 sequence
The test can be described thus: ELISA, coated Human BCMA-His.

Test [14] has as its target T3, recombinant his-tagged human TACI …. The test can be described thus: ELISA, coated Human TACI-His.
The target in test [15] is T5, human BCMA expressed on cells. The test can be described thus: flow cytometry, H929 cells (BCMA+).
The target of test [16] is T1, His-tagged human BCMA (Acro Biosystems, …). In words: BLI, IgG on HFC tip, His-tagged human BCMA 300-37.5 nM. A general note: In BLI a coated tip is dipped into the sample, and binding shifts an interference pattern.
Test [17] has as its target T3, recombinant his-tagged human TACI …. The test can be described thus: BLI, IgG on HFC tip, His-tagged human TACI 300-37.5 nM.
Test [18] has as its target T2, His-tagged cynomolgous macaque BCMA …. In words: BLI, IgG on HFC tip, His-tagged cynomolgus BCMA 300-37.5 nM.
For test [19], the target named is T7, Cyno TACI-His (Sino Biological, …). The test can be described thus: BLI, IgG on HFC tip, His-tagged cynomolgus TACI 300-37.5 nM.
Test [20] concerns the target T5, human BCMA expressed on cells. The test can be described thus: flow cytometry, fixed RPMI 8226 cells (BCMA+, TACI+: the cells carry both targets).

Where a chain is given by its changes, count along the chain named.

B1: 1C8-25 hIgG1 (antibody, V domains shown)
VH: QVQLVQSGAEVKKPGASVKVSCKASGYTFTNYVMHWVRQAPGQRLEWMGYILPYNDGTKYSQKFQGRVTITRDTSASTAYMELSSLRSEDTAVYYCARYDWEGSFDYWGQGTTVTVSS
VL: DIQMTQSPSSLSASVGDRVTITCRASQDIGNYLNWYQQKPGKAVKLLMRYTSRLHSGVPSRFSGSGSGTDFTLTISSLQPEDFATYYCQQGFTFPPTFGGGTKLEIKR
notes: also called [95]
With B1, the binding result in test [1], in [2] and in test [3] was “binds” throughout.

B2: 1C8-27 hIgG1 (antibody, V domains shown)
VH: B1 VH
VL: B1 VL with R24A, G30S, F92N, T93R
notes: also called [96]
Regarding B2, the binding result in [1], in [2] and in test [3] was “binds” in each case.

B3: 539-SP1-C8 (antibody produced by the hybridoma) (antibody, V domains shown)
VH: EVQLQQSGPELVKPGSSVKMSCKASGYTFTNYVMHWVKQKPGQGLEWIGYILPYNDGTKYNEKFKGKATLTSDKSSSTAYMEFSVLTSEDSAVYYCARYDYEGSFDYWGQGTALTVSS
VL: DIQMTQTTSSLSASLGDRVTISCRASQDISNYLNWYQQKPDGTVKLLMCYTSRLHSGVPSRFSGSGSGTDFSLTISNLEQEDIATYFCQQGNTFPPTFGGGTKLEIK
notes: Mouse antibody from B cell hybridoma (culture supernatant or IgG purified from it)
Usually EC50 stands for the concentration giving half of the maximal effect. B3: the “ELISA values (OD 450 nm)” value in test [4] turned out to be 0.686 OD; in test [5], 2.04 OD; in test [6], 0.339 OD. In addition, the values for the EC50 in test [7] and in test [8] were 0.0299 µg/mL and 9.19 µg/mL, respectively. Moreover, the “% Parent (percent positive cells)” value in test [9] came out at 56.5%.

B4: 538-SP5-B10 (antibody produced by the hybridoma) (antibody, V domains shown)
VH: EVQLQQSGPELVKPGASVKMSCKASGYTFTSYVMHWVKQKPGRGLEWIAYILPFNDVTKYNEKFKGKATLTSDKSSNTAYMELSSLTSEDSAVYYCARWEWDDGYFDYWGQGTTLTVSS
VL: DAVMTQTPLSLPVSLGDQASISCRSSQSLENSNGNTYLNWYLQKPGQSPQLLIYRVSNRFSGVLDRFSGSGSGTDFTLKISRVEAEDLGVYFCLQVSHVPFTFGAGTKLELK
notes: as for B3
B4: the “ELISA values (OD 450 nm)” value in [4] amounted to 0.812 OD; in test [5] it was 2.44 OD; in [6], 0.247 OD. For the same molecule, the EC50 in test [7] amounted to 0.0358 µg/mL; in test [8], 21 µg/mL. The “% Parent (percent positive cells)” value in [9] is 70.8%.

B5: 1C8-402 hIgG1 (antibody)
heavy: not shown
light: DIQMTQSPSSLSASVGDRVTITCRASQDISNYLSWYQQKPGKAPKLLMRYTSRLHSGVPSRFSGSGSGTDFTLTISSLEQEDFATYYCQQGNLFPPTFGGGTKVEIKRTVAAPSVFIFPPSDEQLKSGTASVVCLLNNFYPREAKVQWKVDNALQSGNSQESVTEQDSKDSTYSLSSTLTLSKADYEKHKVYACEVTHQGLSSPVTKSFNRGEC
notes: also called [90]
What is called Kd is the equilibrium constant for the complex coming apart. What is called koff is a measure of how fast the partners let go of each other. What is called kon is a measure of how fast the partners come together. Turning to B5, the binding result in test [10] is reported as “no binding (tested: 3 µg/ml (highest concentration))”. Besides, the EC50 is 0.002 nM in test [11]; 4 pM in test [12]; 0.11 nM in test [13]; 0.02 nM in test [14]; 0.128 nM in test [15]; 0.136 nM in [20]. The Kd is 0.791 nM in [16], 70.2 nM in test [17], 2.4 nM in test [18] and 2.59 nM in [19]. Further, the koff in [16] is 0.00312 s⁻¹; in [17] it was 0.0576 s⁻¹; in test [18] it was 0.00272 s⁻¹; in test [19] it was 0.00186 s⁻¹. Also, the kon in [16] amounted to 3.95e+06 M⁻¹ s⁻¹; in test [17] it was 821000 M⁻¹ s⁻¹; in test [18], 1.13e+06 M⁻¹ s⁻¹; in [19] it was 718000 M⁻¹ s⁻¹.

B6: 1C8-610 hIgG1 (antibody, V domains shown)
VH: QVQLVQSGAEVKKPGASVKVSCKASGYTFTNYVMFWVKQKPGQGLEWMGYITPYNDGTKYAQKFQGKVTMTSDKSTSTVYMELSSLTSEDTAVYYCARYDYEGSFDYWGQGTLVTVSS
VL: B1 VL with G30S, V44P, L54F, Q79E, P80Q, F92N, F98S, L104V
notes: also called [93]; hu1C8-610
B6: the binding result in test [10] is reported as “no binding (tested: 3 µg/ml (highest concentration))”. For the same molecule, the half-maximal effective concentration (EC50) stood at 0.089 nM in [11]; 7 pM in test [12]; 0.01 nM in test [13]; 0.01 nM in test [14]; 0.0677 nM in test [15]; 0.134 nM in [20]. Moreover, the Kd worked out at 0.65 nM in [16], 20.8 nM in test [17], 22.8 nM in test [18] and 1.25 nM in [19]. Also, the koff is 0.00307 s⁻¹ in [16], 0.0205 s⁻¹ in test [17], 0.0291 s⁻¹ in [18] and 0.000839 s⁻¹ in test [19]. The kon in test [16] turned out to be 4.71e+06 M⁻¹ s⁻¹; in test [17], 988000 M⁻¹ s⁻¹; in test [18], 1.28e+06 M⁻¹ s⁻¹; in test [19], 673000 M⁻¹ s⁻¹.

B7: 539-SP7-F4 (antibody produced by the hybridoma) (antibody, V domains shown)
VH: EVQLQQSGPELVKPGASMKISCKASGYSFTGYIMNWVKQSHGKNLEWIGLINPYNGDSIYNQKFKGKATLTVDKSSSTAYMELFSLTSEDSTVYYCAAGEEFAYWGQGTLVTVSA
VL: DIQMTQTSSSLSASLGDRVTISCRASQDISIYLNWFQQKPDGTVKLLIYFTSRLHPGVPSRFSASGSGTDYSLTISHLEHEDIATYFCQQGNTLPRTFGGGTKVELK
notes: as for B3
For the molecule B7, the “ELISA values (OD 450 nm)” value was determined as 0.893 OD in test [4], 2.35 OD in test [5] and 0.318 OD in [6]. For the same molecule, the EC50 was determined as 0.0182 µg/mL in test [7] and 14.6 µg/mL in test [8]. In addition, the “% Parent (percent positive cells)” value in test [9] amounted to 63.8%.

The values above are taken from US20230374147A1 (HUMMINGBIRD BIOSCIENCE PTE, published 2023).
